{"source": "patent US20060029667A1", "about": "(RUTGERS THE STATE UNIVERSITY OF NEW JERSEY, published 2006)", "key": {"[1]": {"molecular_target": "high affinity formyl methionine receptor (fMLF receptor) on differentiated HL-60 cells (human) (UniProt P21462)", "sequence (P21462 whole entry)": "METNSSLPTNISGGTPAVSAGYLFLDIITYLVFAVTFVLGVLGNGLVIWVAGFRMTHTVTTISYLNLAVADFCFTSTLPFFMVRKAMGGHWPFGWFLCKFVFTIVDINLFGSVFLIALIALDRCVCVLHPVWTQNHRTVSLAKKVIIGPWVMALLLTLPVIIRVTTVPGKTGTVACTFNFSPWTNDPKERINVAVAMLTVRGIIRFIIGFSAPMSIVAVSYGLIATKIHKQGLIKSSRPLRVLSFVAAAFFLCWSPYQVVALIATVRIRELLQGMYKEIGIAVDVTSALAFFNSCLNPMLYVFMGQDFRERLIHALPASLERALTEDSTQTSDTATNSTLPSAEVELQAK", "assay": "radioligand binding to DMSO-differentiated HL-60 cells"}, "[2]": {"molecular_target": "high affinity formyl methionine receptor (fMLF receptor) on differentiated HL-60 cells (human) (UniProt P21462)", "assay": "cell-based or functional assay"}, "[3]": {"molecular_target": "T1, human sodium dependent multivitamin transporter, hSMVT (human, UniProt Q9Y289 1-635)", "T1 sequence (looked up)": "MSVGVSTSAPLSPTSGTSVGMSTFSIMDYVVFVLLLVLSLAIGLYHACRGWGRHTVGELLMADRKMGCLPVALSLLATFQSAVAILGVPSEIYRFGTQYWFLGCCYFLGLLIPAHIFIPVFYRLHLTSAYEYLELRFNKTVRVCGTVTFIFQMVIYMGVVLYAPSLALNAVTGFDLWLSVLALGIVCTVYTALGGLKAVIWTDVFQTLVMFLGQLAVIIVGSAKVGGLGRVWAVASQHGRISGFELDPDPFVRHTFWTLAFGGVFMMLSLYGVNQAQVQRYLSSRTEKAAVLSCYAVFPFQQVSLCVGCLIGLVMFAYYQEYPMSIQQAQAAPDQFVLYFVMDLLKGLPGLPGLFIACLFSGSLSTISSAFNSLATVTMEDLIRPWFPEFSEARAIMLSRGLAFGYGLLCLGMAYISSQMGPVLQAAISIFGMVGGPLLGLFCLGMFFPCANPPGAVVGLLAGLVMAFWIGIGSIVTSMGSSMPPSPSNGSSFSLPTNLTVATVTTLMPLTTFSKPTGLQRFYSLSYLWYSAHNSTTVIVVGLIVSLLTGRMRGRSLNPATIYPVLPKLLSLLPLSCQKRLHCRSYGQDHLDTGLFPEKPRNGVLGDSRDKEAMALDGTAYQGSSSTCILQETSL", "assay": "cell-based or functional assay"}}, "note": "Non-standard residues stand in square brackets, D forms with d. No end group written: not given here. *: point of attachment. Biotin = O=C1N[C@H]2[C@H](CS[C@H]2CCCCC(=O)*)N1"}
{"molecule": "fML[3H]F (peptide)", "values": [{"measurement": "specific binding as percent of total binding", "setting": "[1]", "result": 75, "unit": "%"}]}
{"molecule": "N-formyl-methionine-leucine-phenylalanine (fMLF) peptide", "values": [{"measurement": "Cell Activation EC50 (calcium release from intracellular stores, differentiated HL-60 cells)", "setting": "[2]", "result": 4.7, "unit": "nM"}]}
{"molecule": "[dK](Biotin)[dR][dR][dR][dQ][dR][dR][dK][dK][dR]-NH2 (not fully specified (N-terminus))", "note": "[RI-K(biotin)-Tat9]", "values": [{"measurement": "uptake in CHO/hSMVT cells relative to RI-K-Tat9 (at 10 µM)", "setting": "[3]", "result": "~500", "unit": "fold"}]}
